B1: MFF (parent)
chain: YTEGISQRMRVPEKLKVAPPNADL
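Further: lentivirally expressed fusions sorted by FACS into six bins by GFP to DsRed ratio, PSI derived from sequencing read proportions per bin multiplied by bin number.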

Variants of: B1
Experiment: protein stability index of a GFP-peptide fusion (GPS, HEK-293T) (PSI 1-6); higher = more stable
Conditions: c terminus: a fixed tail appended
Variant YTEGASQRMRVPEKLKVAPPNADL [I5A] has a protein stability index of 4.19. For YTEGYSQRMRVPEKLKVAPPNADL [I5Y], the protein stability index was 2.41. For YTEGNSQRMRVPEKLKVAPPNADL [I5N], the protein stability index was 4.03. In the case of YTEGHSQRMRVPEKLKVAPPNADL [I5H], the protein stability index is reported as 3.81. In the case of YTEGKSQRMRVPEKLKVAPPNADL [I5K], the protein stability index is reported as 4.18. In the case of YTEGGSQRMRVPEKLKVAPPNADL [I5G], the protein stability index is reported as 3.72. With YTEGRSQRMRVPEKLKVAPPNADL [I5R] the protein stability index was 3.78. YTEGSSQRMRVPEKLKVAPPNADL [I5S] gave a protein stability index of 4.16. Variant YTEGPSQRMRVPEKLKVAPPNADL [I5P] has a protein stability index of 4.33. Work on YTEGLSQRMRVPEKLKVAPPNADL [I5L] yielded a protein stability index of 3.06. For YTEGQSQRMRVPEKLKVAPPNADL [I5Q], the protein stability index was 4.44. For YTEGCSQRMRVPEKLKVAPPNADL [I5C], the protein stability index was 4.16. YTEGIVQRMRVPEKLKVAPPNADL [S6V] showed a protein stability index of 2.19. Variant YTEGICQRMRVPEKLKVAPPNADL [S6C] has a protein stability index of 2.6. For YTEGIQQRMRVPEKLKVAPPNADL [S6Q], the protein stability index was 2.71. For YTEGIYQRMRVPEKLKVAPPNADL [S6Y], the protein stability index was 3.1. With YTEGIPQRMRVPEKLKVAPPNADL [S6P] the protein stability index was 2.29. For YTEGILQRMRVPEKLKVAPPNADL [S6L], the protein stability index was 2.85. With YTEGITQRMRVPEKLKVAPPNADL [S6T] the protein stability index was 2.98. YTEGIAQRMRVPEKLKVAPPNADL [S6A] showed a protein stability index of 2.76. With YTEGISQRMRVPEKLKVAPPNPDL [A22P] the protein stability index was 2.9. Work on YTEGISQRMRVPEKLKVAPPNVDL [A22V] yielded a protein stability index of 3.09. YTEGISQRMRVPEKLKVAPPNIDL [A22I] showed a protein stability index of 2.45. YTEGISQRMRVPEKLKVAPPNSDL [A22S] showed a protein stability index of 2.87. Work on YTEGISQRMRVPEKLKVAPPNDDL [A22D] yielded a protein stability index of 3.34. Variant YTEGISQRMRVPEKLKVAPPNTDL [A22T] has a protein stability index of 2.91. For YTEGISQRMRVPEKLKVAPPNLDL [A22L], the protein stability index was 2.39. For YTEGISQRMRVPEKLKVAPPNWDL [A22W], the protein stability index was 2.45. In the case of YTEGISQRMFVPEKLKVAPPNADL [R10F], the protein stability index is reported as 1.44. With YTEGISQRMSVPEKLKVAPPNADL [R10S] the protein stability index was 2.72. For YTEGISQRMGVPEKLKVAPPNADL [R10G], the protein stability index was 2.83. Work on YTEGISQRMWVPEKLKVAPPNADL [R10W] yielded a protein stability index of 3.33. With YTEGISQRMNVPEKLKVAPPNADL [R10N] the protein stability index was 2.59. With YTEGISQRMKVPEKLKVAPPNADL [R10K] the protein stability index was 3.16. Variant YTEGISQRMRVPEKLKVAPPNADG [L24G] has a protein stability index of 2.91. YTEGISQRMRVPEKLKVAPPNADR [L24R] showed a protein stability index of 2.89. YTEGISQRMRVPEKLKVAPPNADE [L24E] gave a protein stability index of 3.74. In the case of YTEGISQRMRVPEKLKVAPPNADT [L24T], the protein stability index is reported as 2.95. With YTEGISQRMRVPEKLKVAPPNADP [L24P] the protein stability index was 2.92. YTEGISQRMRVPEKLKVAPPNADS [L24S] showed a protein stability index of 2.86. YTEGISQRMRVPEKLKVAPPNADF [L24F] showed a protein stability index of 2.49. YTEGISQRMRVPEKLKVAPPNADW [L24W] showed a protein stability index of 2.14. Work on YTEGISQRMRVPEKLKVAPPNADC [L24C] yielded a protein stability index of 2.87. For YTEGISQRMRVPEKLKVAPPNADQ [L24Q], the protein stability index was 3.14. Variant YTEGISQRMRVPEKLKFAPPNADL [V17F] has a protein stability index of 2.6. With YTEGISQRMRVPEKLKYAPPNADL [V17Y] the protein stability index was 2.3. YTEGISQRMRVPEKLKKAPPNADL [V17K] showed a protein stability index of 3.29. For YTEGISQRMRVPEKLKGAPPNADL [V17G], the protein stability index was 2.65. YTEGISQRMRVPEKLKEAPPNADL [V17E] showed a protein stability index of 3.25. With YTEGISQRMRVPEKLKNAPPNADL [V17N] the protein stability index was 2.85. For YTEGISQRMRVPEKLKSAPPNADL [V17S], the protein stability index was 2.48. For YTEGISQRMRVPEKLKWAPPNADL [V17W], the protein stability index was 2.35. In the case of YTEGISQRMRVPEKLKVAPCNADL [P20C], the protein stability index is reported as 2.44. With YTEGISQRMRVPEKLKVAPHNADL [P20H] the protein stability index was 2.69. For YTEGISQRMRVPEKLKVAPANADL [P20A], the protein stability index was 2.98. YTEGISQRMRVPEKLKVAPLNADL [P20L] showed a protein stability index of 2.24. YTEGISQRMRVPEKLKVAPSNADL [P20S] showed a protein stability index of 2.65. Variant YTEGISQRMRVPEKLKVAPVNADL [P20V] has a protein stability index of 3.06. YTEGISQRMRVPEKLKVAPQNADL [P20Q] showed a protein stability index of 3.44. In the case of YTEGISQRMRVPEKLKVAPKNADL [P20K], the protein stability index is reported as 3.51. Work on YTEGISQRMRVPEKMKVAPPNADL [L15M] yielded a protein stability index of 2.59. Variant YTEGISQRMRVPEKQKVAPPNADL [L15Q] has a protein stability index of 3.06. YTEGISQRMRVPEKWKVAPPNADL [L15W] showed a protein stability index of 2.51. Work on YTEGISQRMRVPEKYKVAPPNADL [L15Y] yielded a protein stability index of 3.12. Variant YTEGISQRMRVPEKRKVAPPNADL [L15R] has a protein stability index of 2.58. Variant YTEGISQRMRVPEKEKVAPPNADL [L15E] has a protein stability index of 3.36. With YTEGISQRMRVPEKGKVAPPNADL [L15G] the protein stability index was 3.38. YTEGISQYMRVPEKLKVAPPNADL [R8Y] gave a protein stability index of 1.75. For YTEGISQVMRVPEKLKVAPPNADL [R8V], the protein stability index was 2.6. With YTEGISQEMRVPEKLKVAPPNADL [R8E] the protein stability index was 3.6. For YTEGISQFMRVPEKLKVAPPNADL [R8F], the protein stability index was 1.95. For YTEGISQNMRVPEKLKVAPPNADL [R8N], the protein stability index was 3.18. For YTEGISQDMRVPEKLKVAPPNADL [R8D], the protein stability index was 3.76. For YTEGISQSMRVPEKLKVAPPNADL [R8S], the protein stability index was 2.43. YTEGISQRMRVPEKLKVAPPFADL [N21F] gave a protein stability index of 2.25. Work on YTEGISQRMRVPEKLKVAPPEADL [N21E] yielded a protein stability index of 2.87. Variant YTEGISQRMRVPEKLKVAPPKADL [N21K] has a protein stability index of 2.99. Work on YTEGISQRMRVPEKLKVAPPVADL [N21V] yielded a protein stability index of 3.09. For YTEGISQRMRVPEKLKVAPPIADL [N21I], the protein stability index was 2.34. YTEGISQRMRVPEKLKVAPPDADL [N21D] gave a protein stability index of 3.1. YTEGISQRKRVPEKLKVAPPNADL [M9K] gave a protein stability index of 3.37. YTEGISQRLRVPEKLKVAPPNADL [M9L] showed a protein stability index of 3.22. With YTEGISQRGRVPEKLKVAPPNADL [M9G] the protein stability index was 2.89. In the case of YTEGISQRQRVPEKLKVAPPNADL [M9Q], the protein stability index is reported as 2.79. YTEGISQRPRVPEKLKVAPPNADL [M9P] gave a protein stability index of 3.27. For YTEGISQRIRVPEKLKVAPPNADL [M9I], the protein stability index was 2.2. Work on YTEGISQRYRVPEKLKVAPPNADL [M9Y] yielded a protein stability index of 2.57. Work on YTEGISQRRRVPEKLKVAPPNADL [M9R] yielded a protein stability index of 2.54. Work on YTEGISQRTRVPEKLKVAPPNADL [M9T] yielded a protein stability index of 2.74. For YTEGISQRMRVPEKLKVSPPNADL [A18S], the protein stability index was 2.85. For YTEGISQRMRVPEKLKVYPPNADL [A18Y], the protein stability index was 2.59. With YTEGISQRMRVPEKLKVPPPNADL [A18P] the protein stability index was 2.89. YTEGISQRMRVPEKLKVKPPNADL [A18K] gave a protein stability index of 2.59. YTEGISQRMRVPEKLKVGPPNADL [A18G] gave a protein stability index of 2.54.
